Side-chain parts run from the residue outwards. [ ]: non-standard residue; d: D form. NMeK = CN[C@@H](CCCCN)C(=O)O; Ahx = NCCCCCC(=O)O; BDPFL = dye
T1: integrin αvβ3 (human, UniProt P06756)
T1 chain 1: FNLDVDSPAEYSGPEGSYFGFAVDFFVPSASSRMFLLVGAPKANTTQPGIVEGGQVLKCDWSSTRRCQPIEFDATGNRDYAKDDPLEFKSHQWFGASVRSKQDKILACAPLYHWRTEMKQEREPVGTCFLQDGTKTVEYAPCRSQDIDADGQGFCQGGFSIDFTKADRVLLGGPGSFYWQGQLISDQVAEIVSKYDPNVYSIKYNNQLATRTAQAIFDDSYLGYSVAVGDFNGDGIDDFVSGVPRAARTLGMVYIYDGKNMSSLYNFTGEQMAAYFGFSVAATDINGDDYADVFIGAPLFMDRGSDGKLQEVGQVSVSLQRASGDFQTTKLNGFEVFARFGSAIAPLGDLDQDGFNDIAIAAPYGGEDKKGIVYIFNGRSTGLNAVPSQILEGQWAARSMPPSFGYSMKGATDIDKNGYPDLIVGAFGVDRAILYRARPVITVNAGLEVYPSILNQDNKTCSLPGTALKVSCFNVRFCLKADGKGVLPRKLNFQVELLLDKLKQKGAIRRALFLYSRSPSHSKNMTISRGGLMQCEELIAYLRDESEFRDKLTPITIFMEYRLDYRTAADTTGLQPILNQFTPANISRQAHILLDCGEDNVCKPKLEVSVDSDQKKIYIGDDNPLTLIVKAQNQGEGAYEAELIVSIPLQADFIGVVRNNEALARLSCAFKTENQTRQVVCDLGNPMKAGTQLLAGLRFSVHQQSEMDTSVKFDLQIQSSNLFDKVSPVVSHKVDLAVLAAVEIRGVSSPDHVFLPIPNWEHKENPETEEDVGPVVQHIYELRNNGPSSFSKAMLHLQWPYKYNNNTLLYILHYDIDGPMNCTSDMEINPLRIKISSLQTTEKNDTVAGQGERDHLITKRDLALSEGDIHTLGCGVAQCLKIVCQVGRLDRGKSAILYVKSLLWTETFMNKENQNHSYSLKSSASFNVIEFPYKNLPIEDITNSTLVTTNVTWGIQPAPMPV
T1 chain 2: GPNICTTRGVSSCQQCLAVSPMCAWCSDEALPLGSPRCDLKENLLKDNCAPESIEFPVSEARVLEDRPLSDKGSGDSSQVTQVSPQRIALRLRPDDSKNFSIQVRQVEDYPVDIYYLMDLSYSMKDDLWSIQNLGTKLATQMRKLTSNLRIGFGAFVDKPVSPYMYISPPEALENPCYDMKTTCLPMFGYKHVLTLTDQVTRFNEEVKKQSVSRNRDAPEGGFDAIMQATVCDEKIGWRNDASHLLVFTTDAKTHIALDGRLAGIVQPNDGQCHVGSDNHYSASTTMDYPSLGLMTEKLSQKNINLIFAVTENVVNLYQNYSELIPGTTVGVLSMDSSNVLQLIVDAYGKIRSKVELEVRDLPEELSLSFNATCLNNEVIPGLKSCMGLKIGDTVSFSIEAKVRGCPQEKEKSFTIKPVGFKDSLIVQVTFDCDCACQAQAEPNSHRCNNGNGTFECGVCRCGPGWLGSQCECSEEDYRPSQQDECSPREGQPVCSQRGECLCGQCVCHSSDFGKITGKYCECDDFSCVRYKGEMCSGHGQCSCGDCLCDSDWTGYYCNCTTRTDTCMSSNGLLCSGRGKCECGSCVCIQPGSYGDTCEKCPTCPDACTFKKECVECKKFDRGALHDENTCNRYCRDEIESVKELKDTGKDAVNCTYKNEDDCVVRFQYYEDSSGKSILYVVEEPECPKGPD

T2: integrin αvβ6 (human, UniProt P06756)
T2 chain 1: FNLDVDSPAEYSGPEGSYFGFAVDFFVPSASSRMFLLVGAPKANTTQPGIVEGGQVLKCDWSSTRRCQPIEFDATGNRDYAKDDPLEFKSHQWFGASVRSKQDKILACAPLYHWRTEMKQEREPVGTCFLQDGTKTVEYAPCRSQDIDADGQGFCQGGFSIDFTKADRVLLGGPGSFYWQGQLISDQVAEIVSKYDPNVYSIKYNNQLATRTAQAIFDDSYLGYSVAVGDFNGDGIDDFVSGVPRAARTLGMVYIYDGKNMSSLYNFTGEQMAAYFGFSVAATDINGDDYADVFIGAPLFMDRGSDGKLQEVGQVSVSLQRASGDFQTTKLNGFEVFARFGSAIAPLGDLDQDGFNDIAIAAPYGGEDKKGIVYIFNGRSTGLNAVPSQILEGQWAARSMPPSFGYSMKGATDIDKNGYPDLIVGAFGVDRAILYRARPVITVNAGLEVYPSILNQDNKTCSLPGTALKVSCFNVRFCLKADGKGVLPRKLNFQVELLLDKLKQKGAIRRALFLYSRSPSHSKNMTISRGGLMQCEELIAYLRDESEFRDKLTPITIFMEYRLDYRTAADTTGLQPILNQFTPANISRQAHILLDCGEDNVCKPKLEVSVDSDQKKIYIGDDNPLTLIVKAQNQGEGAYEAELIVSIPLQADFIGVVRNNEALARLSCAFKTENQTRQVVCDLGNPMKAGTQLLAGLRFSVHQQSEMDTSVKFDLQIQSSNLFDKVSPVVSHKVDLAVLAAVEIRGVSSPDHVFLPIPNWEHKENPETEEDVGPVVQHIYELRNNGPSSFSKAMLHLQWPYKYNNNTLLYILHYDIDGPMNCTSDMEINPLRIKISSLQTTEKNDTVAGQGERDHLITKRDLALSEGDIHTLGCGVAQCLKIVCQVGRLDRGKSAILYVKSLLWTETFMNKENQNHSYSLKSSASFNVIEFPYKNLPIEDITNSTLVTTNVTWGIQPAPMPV
T2 chain 2: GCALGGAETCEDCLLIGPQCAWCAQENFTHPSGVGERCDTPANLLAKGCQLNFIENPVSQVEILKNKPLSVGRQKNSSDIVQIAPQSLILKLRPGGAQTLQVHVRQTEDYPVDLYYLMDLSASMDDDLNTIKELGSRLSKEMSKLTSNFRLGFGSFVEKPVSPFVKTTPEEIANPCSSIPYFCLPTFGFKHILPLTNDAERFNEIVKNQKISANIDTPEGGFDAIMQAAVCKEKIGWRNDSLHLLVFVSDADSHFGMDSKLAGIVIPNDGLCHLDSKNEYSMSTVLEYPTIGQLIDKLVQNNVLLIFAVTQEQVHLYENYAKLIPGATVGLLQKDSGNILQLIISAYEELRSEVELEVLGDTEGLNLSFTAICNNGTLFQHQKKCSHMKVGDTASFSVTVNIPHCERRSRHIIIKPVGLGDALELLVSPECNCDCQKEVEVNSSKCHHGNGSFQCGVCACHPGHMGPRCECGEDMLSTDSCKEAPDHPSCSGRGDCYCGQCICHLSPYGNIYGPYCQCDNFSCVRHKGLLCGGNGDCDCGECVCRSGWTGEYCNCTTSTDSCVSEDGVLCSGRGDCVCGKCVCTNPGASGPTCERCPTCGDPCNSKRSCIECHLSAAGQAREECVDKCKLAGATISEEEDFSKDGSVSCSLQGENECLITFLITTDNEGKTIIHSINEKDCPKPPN

T3: integrin αvβ8 (human, UniProt P06756)
T3 chain 1: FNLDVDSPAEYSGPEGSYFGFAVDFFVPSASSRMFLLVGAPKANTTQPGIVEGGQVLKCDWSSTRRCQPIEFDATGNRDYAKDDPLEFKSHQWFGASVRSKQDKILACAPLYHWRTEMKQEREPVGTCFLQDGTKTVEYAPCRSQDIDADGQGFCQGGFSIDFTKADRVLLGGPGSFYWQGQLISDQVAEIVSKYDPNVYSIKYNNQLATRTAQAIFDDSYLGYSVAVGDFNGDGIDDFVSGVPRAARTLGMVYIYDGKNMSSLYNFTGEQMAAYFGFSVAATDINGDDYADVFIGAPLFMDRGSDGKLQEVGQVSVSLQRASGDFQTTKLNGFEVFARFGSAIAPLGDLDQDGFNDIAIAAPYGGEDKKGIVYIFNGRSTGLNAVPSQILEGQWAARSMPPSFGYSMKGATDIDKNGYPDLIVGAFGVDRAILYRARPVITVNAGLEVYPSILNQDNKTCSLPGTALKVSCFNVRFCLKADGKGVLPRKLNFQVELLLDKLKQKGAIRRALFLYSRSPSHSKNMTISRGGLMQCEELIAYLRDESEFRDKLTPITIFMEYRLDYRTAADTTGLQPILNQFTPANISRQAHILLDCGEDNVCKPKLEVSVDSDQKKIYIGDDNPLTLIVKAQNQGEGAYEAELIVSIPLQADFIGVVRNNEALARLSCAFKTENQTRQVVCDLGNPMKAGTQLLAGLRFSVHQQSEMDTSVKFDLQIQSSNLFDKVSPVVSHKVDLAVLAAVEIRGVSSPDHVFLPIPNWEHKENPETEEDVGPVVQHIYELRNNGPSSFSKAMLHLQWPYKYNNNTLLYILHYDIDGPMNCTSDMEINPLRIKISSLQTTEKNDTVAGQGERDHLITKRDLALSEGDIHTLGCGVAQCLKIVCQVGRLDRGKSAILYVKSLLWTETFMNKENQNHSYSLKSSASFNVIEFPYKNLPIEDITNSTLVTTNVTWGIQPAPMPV
T3 chain 2: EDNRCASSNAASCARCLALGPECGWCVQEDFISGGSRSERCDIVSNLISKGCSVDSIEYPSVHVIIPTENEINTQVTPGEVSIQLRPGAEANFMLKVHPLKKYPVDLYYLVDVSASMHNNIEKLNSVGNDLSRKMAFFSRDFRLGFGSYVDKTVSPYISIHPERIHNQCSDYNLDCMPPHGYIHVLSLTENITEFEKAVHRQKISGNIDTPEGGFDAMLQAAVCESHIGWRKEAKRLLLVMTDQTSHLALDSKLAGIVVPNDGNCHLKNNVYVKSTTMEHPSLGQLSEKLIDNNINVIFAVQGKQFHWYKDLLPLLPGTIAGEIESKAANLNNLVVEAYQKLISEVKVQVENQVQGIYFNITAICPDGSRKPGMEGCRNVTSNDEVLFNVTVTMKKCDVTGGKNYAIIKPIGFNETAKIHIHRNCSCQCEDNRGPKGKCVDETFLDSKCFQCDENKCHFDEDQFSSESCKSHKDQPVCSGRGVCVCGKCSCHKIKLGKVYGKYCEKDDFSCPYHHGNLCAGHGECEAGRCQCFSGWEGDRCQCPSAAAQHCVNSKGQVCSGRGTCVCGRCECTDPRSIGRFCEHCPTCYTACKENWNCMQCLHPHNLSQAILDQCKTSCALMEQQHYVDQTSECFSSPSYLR


What was measured:
Experiment in all cases: competition
integrin αvβ3 = molecular target: T1, integrin αvβ3
integrin αvβ6 = molecular target: T2, integrin αvβ6
integrin αvβ8 = molecular target: T3, integrin αvβ8
integrin α5β1 = integrin α5β1 (human, UniProt P08648)
integrin αIIbβ3 = integrin αIIbβ3 (human, UniProt P08514)

integrin α5β1, sequence (P08648 42-1049, chain 1 of 2): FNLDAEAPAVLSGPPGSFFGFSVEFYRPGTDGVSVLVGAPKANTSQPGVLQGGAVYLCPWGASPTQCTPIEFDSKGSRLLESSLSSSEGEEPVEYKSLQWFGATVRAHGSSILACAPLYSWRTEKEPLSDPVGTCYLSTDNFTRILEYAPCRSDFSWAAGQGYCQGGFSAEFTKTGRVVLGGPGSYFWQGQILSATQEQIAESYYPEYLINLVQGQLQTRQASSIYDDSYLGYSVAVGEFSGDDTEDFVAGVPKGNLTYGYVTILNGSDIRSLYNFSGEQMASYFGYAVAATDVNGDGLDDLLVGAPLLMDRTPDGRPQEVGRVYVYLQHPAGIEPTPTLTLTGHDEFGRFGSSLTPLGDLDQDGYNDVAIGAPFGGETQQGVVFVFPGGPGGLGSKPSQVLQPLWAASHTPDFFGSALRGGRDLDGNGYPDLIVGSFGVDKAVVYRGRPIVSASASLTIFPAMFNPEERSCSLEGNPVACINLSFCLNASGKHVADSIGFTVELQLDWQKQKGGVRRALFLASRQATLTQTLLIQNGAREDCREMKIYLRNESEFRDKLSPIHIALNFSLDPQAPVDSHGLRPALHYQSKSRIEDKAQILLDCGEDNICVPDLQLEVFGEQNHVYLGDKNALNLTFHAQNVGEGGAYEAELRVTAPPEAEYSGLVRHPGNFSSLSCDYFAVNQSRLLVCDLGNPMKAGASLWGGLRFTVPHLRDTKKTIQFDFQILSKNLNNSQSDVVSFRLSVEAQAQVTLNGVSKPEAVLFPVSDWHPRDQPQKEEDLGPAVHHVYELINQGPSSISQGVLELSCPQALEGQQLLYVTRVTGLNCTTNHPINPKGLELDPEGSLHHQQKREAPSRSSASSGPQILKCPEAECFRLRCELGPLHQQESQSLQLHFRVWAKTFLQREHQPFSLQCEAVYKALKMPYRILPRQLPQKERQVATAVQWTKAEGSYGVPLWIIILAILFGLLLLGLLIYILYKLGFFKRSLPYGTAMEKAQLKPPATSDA
integrin α5β1, sequence (chain, as listed by the source, chain 2 of 2): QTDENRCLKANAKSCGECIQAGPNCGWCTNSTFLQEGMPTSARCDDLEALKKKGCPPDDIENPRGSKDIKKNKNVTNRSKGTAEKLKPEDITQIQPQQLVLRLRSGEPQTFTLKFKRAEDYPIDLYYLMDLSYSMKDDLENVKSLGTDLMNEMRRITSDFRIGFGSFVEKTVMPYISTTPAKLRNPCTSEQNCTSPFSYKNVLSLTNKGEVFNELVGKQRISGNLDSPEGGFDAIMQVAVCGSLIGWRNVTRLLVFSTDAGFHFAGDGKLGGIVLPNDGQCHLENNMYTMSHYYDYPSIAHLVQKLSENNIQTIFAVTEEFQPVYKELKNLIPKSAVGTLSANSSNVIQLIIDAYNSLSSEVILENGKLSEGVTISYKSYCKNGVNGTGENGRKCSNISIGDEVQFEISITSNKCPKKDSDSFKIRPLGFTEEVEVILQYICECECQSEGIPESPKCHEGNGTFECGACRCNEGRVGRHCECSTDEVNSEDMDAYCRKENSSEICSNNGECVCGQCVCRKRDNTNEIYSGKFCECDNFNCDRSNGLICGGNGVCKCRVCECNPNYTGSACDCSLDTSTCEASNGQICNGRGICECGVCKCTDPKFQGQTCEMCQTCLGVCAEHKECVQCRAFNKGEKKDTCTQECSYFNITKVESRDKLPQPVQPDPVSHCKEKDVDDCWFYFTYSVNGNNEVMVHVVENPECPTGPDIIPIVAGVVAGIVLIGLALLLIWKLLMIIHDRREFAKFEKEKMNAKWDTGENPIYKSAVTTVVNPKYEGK

Binder | IC50 (integrin αvβ3) [nM] | IC50 (integrin αvβ6) [nM] | IC50 (integrin αvβ8) [nM] | IC50 (integrin α5β1) [nM] | IC50 (integrin αIIbβ3) [nM]
cyclo(RGD[dF]K) (also: Ahx-BDPFL conjugate, attachment site not given here) [Compound 13 (Table 3) c(RGDfK)-Ahx-BDPFL] | 2.55 | 7.8 | 258 |  | 
cyclo(RGD[dF]K) [Compound 12 (Table 3) c(RGDfK)] |  |  |  | 141 | > 10000
cyclo(RGDL[dP][NMeK]([Ahx-Ahx-BDPFL])GL) [Compound 9c (9-Ahx-Ahx-BDPFL)] | 500 | 64 | 1.52 |  | 
